According to PMC10858482:
Values belong to the substance of their own block, whether it stands above or below them.

What was measured:
[1] = biological target: MP-3fc (miniACE2-(GGGGS)3-coiled-coil, trivalent); assay: SEC
[2] = biological target: MP-3ff (miniACE2-(GGGGS)3-foldon, trivalent) (bacteriophage T4); assay: SEC
[3] = biological target: MP-3rc (miniACE2-(EAAAK)3-coiled-coil, trivalent); assay: SEC
[4] = biological target: MP-3rf (miniACE2-(EAAAK)3-foldon, trivalent) (bacteriophage T4); assay: SEC
[5] = biological target: MP-5fc (miniACE2-(GGGGS)5-coiled-coil, trivalent); assay: SEC
[6] = biological target: RBD of the S protein of SARS-CoV-2 (Wuhan-Hu-1) (SARS-CoV-2 (Wuhan-Hu-1)) (UniProt P0DTC2); assay: BLI; Octet RED96e; RBD (Wuhan-Hu-1) immobilised on HIS1K biosensors; analyte 50-3.125 nM miniACE2 or 100-3.125 nM MP-5ff in 1x PBS, 0.02% Tween-20, 0.1% BSA; association 1 min, dissociation 3 min; 1:1 binding model
[7] = biological target: MP-5ff (miniACE2-(GGGGS)5-foldon, trivalent) (bacteriophage T4); assay: SEC
[8] = biological target: MP-5rc (miniACE2-(EAAAK)5-coiled-coil, trivalent); assay: SEC
[9] = biological target: MP-5rf (miniACE2-(EAAAK)5-foldon, trivalent) (bacteriophage T4); assay: SEC

Substance: MP-3ff (miniACE2-(GGGGS)3-foldon, trivalent) (designed binder)
stoichiometry N [2]: 3

Substance: MP-3rc (miniACE2-(EAAAK)3-coiled-coil, trivalent) (designed binder)
stoichiometry N [3]: 3

Substance: MP-5fc (miniACE2-(GGGGS)5-coiled-coil, trivalent) (designed binder)
stoichiometry N [5]: 3

Substance: MP-5rf (miniACE2-(EAAAK)5-foldon, trivalent) (designed binder)
stoichiometry N [9]: 3

Substance: miniACE2 (microprotein LCB3) (designed binder)
Kd [6]: 1.03 nM | koff [6]: 0.000986 s⁻¹

More lines, now with the values ahead:

stoichiometry N [1]: 3
Substance: MP-3fc (miniACE2-(GGGGS)3-coiled-coil, trivalent) (designed binder)

stoichiometry N [4]: 3
Substance: MP-3rf (miniACE2-(EAAAK)3-foldon, trivalent) (designed binder)

Kd [6]: < 0.001 nM | koff [6]: < 1e-07 s⁻¹ | stoichiometry N [7]: 3
Substance: MP-5ff (miniACE2-(GGGGS)5-foldon, trivalent) (designed binder)

stoichiometry N [8]: 3
Substance: MP-5rc (miniACE2-(EAAAK)5-coiled-coil, trivalent) (designed binder)
